Assays:
[1] = biological target: PACRGΔ1-69 Y189ϕ (p-iodo-L-phenylalanine derivative) (human, UniProt Q96M98-2 70-257, Y189ϕ, p-iodo-L-phenylalanine (ϕ) at 189); assay: SEC
[2] = biological target: PACRGΔ1-69 Y108ϕ (p-iodo-L-phenylalanine derivative) (human, UniProt Q96M98-2 70-257, Y108ϕ, p-iodo-L-phenylalanine (ϕ) at 108); assay: SEC

- binding result [1]: binds
- binding result [2]: binds
B1: MEIG1 (human), His6 tag cleaved (natural protein)
chain: MASSDVKPKSVSHAKKWSEEIENLYRFQQAGYRDETEYRQVKQVSMVDRWPETGYVKKLQRRDNTFYYYNKQRECDDKEVHKVKIYAY

Reference: publication doi:10.1101/783373 (bioRxiv, 2019)
